# From patent US20250283886
# T1: FFMFFM{LYS(N3)} peptide-linker conjugate, oligo linker (Table 6 entry 6)
# T1 chain: FFMFFMX
# T2: KKMKKM{LYS(N3)} peptide-linker conjugate, PEG4 linker (Table 6 entry 4)
# T2 chain: KKMKKMX
# T3: KKMKKM{LYS(N3)} peptide-linker conjugate, oligo linker (Table 6 entry 2)
# T3 chain: KKMKKMX
# T4: KKMKKM{LYS(N3)} peptide-linker conjugate, oligo-PEG linker (Table 6 entry 3)
# T4 chain: KKMKKMX
# T5: FAAAWPDDDF1
# T5 chain: FAAAWPDDDF
# T6: FAAAYPDDDF1
# T6 chain: FAAAYPDDDF
# T7: FYPLPWPDDDY{LYSN3}NH2
# T7 chain: FYPLPWPDDDYX
# T8: WAAAFPDDDF1
# T8 chain: WAAAFPDDDF
# B1: rat aminopeptidase N (protein)
# chain: KPWNQYRLPKTLIPDSYQVTLRPYLTPNEQGLYIFKGSSTVRFTCNETTNVIIIHSKKLNYTNKGNHRVALRALGDTPAPNIDTTELVERTEYLVVHLQGSLVKGHQYEMDSEFQGELADDLAGFYRSEYMEGGNKKVVATTQMQAADARKSFPCFDEPAMKASFNITLIHPNNLTALSNMLPKDSRTLQEDPSWNVTEFHPTPKMSTYLLAYIVSEFKYVEAVSPNRVQIRIWARPSAIDEGHGDYALQVTGPILNFFAQHYNTAYPLEKSDQIALPDFNAGAMENWGLVTYRESALVFDPQSSSISNKERVVTVIAHELAHQWFGNLVTVDWWNDLWLNEGFASYVEFLGADYAEPTWNLKDLIVLNDVYRVMAVDALASSHPLSSPANEVNTPAQISELFDSITYSKGASVLRMLSSFLTEDLFKKGLSSYLHTFQYSNTIYLDLWEHLQQAVDSQTAIKLPASVSTIMDRWILQMGFPVITVNTSTGEIYQEHFLLDPTSKPTRPSDFNYLWIVPIPYLKNGKEDHYWLETEKNQSAEFQTSSNEWLLLNINVTGYYQVNYDENNWRKIQNQLQTDLSVIPVINRAQIIHDSFNLASAGKLSITLPLSNTLFLASETEYMPWEAALSSLNYFKLMFDRSEVYGPMKRYLKKQVTPLFAYFKIKTNNWLDRPPTLMEQYNEINAISTACSSGLEECRDLVVGLYSQWMNNSDNNPIHPNLRSTVYCNAIAFGGEEEWNFAWEQFRKATLVNEADKLRSALACSNEVWILNRYLSYTLNPDYIRKQDATSTIVSIANNVVGQTLVWDFVRSNWKKLFEDYGGGSFSFANLIQGVTRRFSSEFELQQLEQFKEDNSATGFGSGTRALEQALEKTKANIKWVKENKDVVLKWFTENS
# B2: Vibrio proteolyticus aminopeptidase (protein)
# chain: MPPITQQATVTAWLPQVDASQITGTISSLESFTNRFYTTTSGAQASDWIASEWQALSASLPNASVKQVSHSGYNQKSVVMTITGSEAPDEWIVIGGHLDSTIGSHTNEQSVAPGADDDASGIAAVTEVIRVLSENNFQPKRSIAFMAYAAEEVGLRGSQDLANQYKSEGKNVVSALQLDMTNYKGSAQDVVFITDYTDSNFTQYLTQLMDEYLPSLTYGFDTCGYACSDHASWHNAGYPAAMPFESKFNDYNPRIHTTQDTLANSDPTGSHAKKFTQLGLAYAIEMGSATGDTPTPGNQ
# Assays:
# [1] = target: T1, FFMFFM{LYS(N3)} peptide-linker …
# [2] = target: KF peptide-linker conjugate, oligo linker (Table 6 entry 1)
# [3] = target: T2, KKMKKM{LYS(N3)} peptide-linker …
# [4] = target: T3, KKMKKM{LYS(N3)} peptide-linker …
# [5] = target: T4, KKMKKM{LYS(N3)} peptide-linker …
# [6] = target: […]{LYS(N3)} peptide-linker conjugate, oligo linker (Table 6 entry 5)
# [7] = target: […]{LYS(N3)} peptide-linker conjugate, oligo linker (Table 6 entry 7)
# [8] = target: T5, FAAAWPDDDF1
# [9] = target: T6, FAAAYPDDDF1
# [10] = target: T7, FYPLPWPDDDY{LYSN3}NH2
# [11] = target: T8, WAAAFPDDDF1
protein,measurement,setting,value
B1,Cleaved by Rat APN,[1],Yes
same,Cleaved by Rat APN,[2],No
same,Cleaved by Rat APN,[3],Yes
same,Cleaved by Rat APN,[4],No
same,Cleaved by Rat APN,[5],No
same,Cleaved by Rat APN,[6],Yes
same,Cleaved by Rat APN,[7],Yes
B2,"HPLC Assay Conv; 600 uM Peptide, 8 uM enzyme, pH 8, RT/0.5 hr",[8],100%
same,"HPLC Assay Conv; 600 uM Peptide, 0.08 uM enzyme, RT/0.5 hr",[9],5%
same,"HPLC Assay Conv; 600 uM Peptide, 0.8 uM enzyme, RT/0.5 hr",[9],50%
same,"HPLC Assay Conv; 600 uM Peptide, 8 uM enzyme, RT/0.5 hr",[9],100%
same,"HPLC Assay Conv; 200 uM Peptide, 8 uM enzyme, MOPS pH 5.0, RT/0.5 hr",[10],100%
same,"HPLC Assay Conv; 200 uM Peptide, 8 uM enzyme, MOPS pH 5.0, RT/1 hr",[10],100%
same,"HPLC Assay Conv; 600 uM Peptide, 0.8 uM enzyme, pH 5.5, RT/0.5 hr",[10],100%
same,"HPLC Assay Conv; 600 uM Peptide, 0.8 uM enzyme, pH 6.5, RT/0.5 hr",[10],100%
same,"HPLC Assay Conv; 600 uM Peptide, 0.8 uM enzyme, pH 7.5, RT/0.5 hr",[10],100%
same,"HPLC Assay Conv; 600 uM Peptide, 0.8 uM enzyme, pH 8.5, RT/0.5 hr",[10],100%
same,"HPLC Assay Conv; 1200 uM Peptide, 800 pM enzyme, pH 7.5, RT/0.5 hr",[10],2.70%
same,"HPLC Assay Conv; 1200 uM Peptide, 800 pM enzyme, pH 8.5, RT/0.5 hr",[10],6.80%
same,"HPLC Assay Conv; 1200 uM Peptide, 0.008 uM enzyme, pH 5.5, RT/0.5 hr",[10],1.40%
same,"HPLC Assay Conv; 1200 uM Peptide, 0.008 uM enzyme, pH 6.5, RT/0.5 hr",[10],56%
same,"HPLC Assay Conv; 1200 uM Peptide, 0.008 uM enzyme, pH 7.5, RT/0.5 hr",[10],100%
same,"HPLC Assay Conv; 1200 uM Peptide, 0.008 uM enzyme, pH 8.5, RT/0.5 hr",[10],100%
same,"HPLC Assay Conv; 1200 uM Peptide, 0.08 uM enzyme, pH 5.5, RT/0.5 hr",[10],50%
same,"HPLC Assay Conv; 1200 uM Peptide, 0.08 uM enzyme, pH 6.5, RT/0.5 hr",[10],100%
same,"HPLC Assay Conv; 1200 uM Peptide, 0.08 uM enzyme, pH 7.5, RT/0.5 hr",[10],100%
same,"HPLC Assay Conv; 1200 uM Peptide, 0.08 uM enzyme, pH 8.5, RT/0.5 hr",[10],100%
same,"HPLC Assay Conv; 300 uM Peptide, 8 uM enzyme, 50/50 MOPS Mg buffer/RB1, RT/0.5 hr",[11],30%
same,"HPLC Assay Conv; 300 uM Peptide, 8 uM enzyme, RB2 + Mg, RT/0.5 hr",[11],5%
same,"HPLC Assay Conv; 300 uM Peptide, 8 uM enzyme, RB4, RT/0.5 hr",[11],100%
same,"HPLC Assay Conv; 300 uM Peptide, 8 uM enzyme, pH 8, 60 mM KOAc, RT/0.5 hr",[11],70%
same,"HPLC Assay Conv; 300 uM Peptide, 8 uM enzyme, pH 8, 60 mM KOAc, RT/2 hr",[11],100%
same,"HPLC Assay Conv; 300 uM Peptide, 8 uM enzyme, pH 8, 0.2% Tween20, RT/0.5 hr",[11],100%
same,"HPLC Assay Conv; 300 uM Peptide, 8 uM enzyme, pH 8, RT/0.5 hr",[11],100%
same,"HPLC Assay Conv; 600 uM Peptide, 8 uM enzyme, pH 8, RT/0.5 hr",[11],100%
